Assay results reported in patent US20140303084A1 (Biogen, published 2014).
Bridge positions count the residues as written; N and C are the ends. Square brackets hold non-standard residues; d marks the D form. Primed or numbered codes have the meaning given here. Side chains are listed from the residue outwards. Ends that are not written are not given here. * marks the point of attachment. Biotin = O=C1N[C@H]2[C@H](CS[C@H]2CCCCC(=O)*)N1; 1Nal = N[C@@H](Cc1cccc2ccccc12)C(=O)O; NMeR = CN[C@@H](CCCNC(=N)N)C(=O)O; NMeA = CN[C@@H](C)C(=O)O; PEG2′ = PEG2 spacer unit; Aib = CC(C)(N)C(=O)O; Sar = CNCC(=O)O

Target: human Factor IXa (human, UniProt P00740 47-191; P00740 227-461)
Assay: cell-based or functional assay

Row | Binder | EC50 [µM], FXa generation assay [µM] | EC50 [µM], FXa generation assay with hFIXa [µM]
1 | RRAPGKLQCLASYCWLFWTGFA | < 0.5 | –
2 | RRAPGKLQCLASYCWLFKTGIA | > 10 | –
3 | RKAPGKLQCLASYCWLFWTGIA | > 1 | –
4 | RRAP[Sar]KLTCLASYCWLFWTGIA (not fully specified; printed as RRAP-Sar-KLTCLASYCWLFWTGIA; cysteine pairing not given here) [RRAP-Sar-KLTCLASYCWLFWTGIA] | < 0.5 | –
5 | RRAKGKLQCLASYCWLFWTGIA | > 1 | –
6 | RRAPGKLQCLASYCWLFWT[Aib]IA (not fully specified; printed as RRAPGKLQCLASYCWLFWT-Aib-IA; cysteine pairing not given here) [RRAPGKLQCLASYCWLFWT-Aib-IA] | > 1 | –
7 | RRAPGKLQCLASYCWLFWTG[1Nal]A (not fully specified; printed as RRAPGKLQCLASYCWLFWTG-(1-Nal)-A; cysteine pairing not given here) [RRAPGKLQCLASYCWLFWTG-(1-Nal)-A] | < 0.5 | –
8 | RRAPGKLTCLASYCWLFWTGIA-NH2 (cysteine pairing not given here) [compound 4] | – | < 0.5
9 | RRAPGKLQCLASYCWLFWTGIK | > 1 | –
10 | [NMeR]RAPGKLTCLASYCWLFWTGIA (cysteine pairing not given here) [MeArg-RAPGKLTCLASYCWLFWTGIA] | > 1 | –
11 | RRAPKKLQCLASYCWLFWTGIA | > 1 | –
12 | RRAPGKLQCLASYCWLFWTKIA | > 1 | –
13 | RRAPGKLQCLASYCWLFWKGIA | > 5 | –
14 | RR[NMeA]PGKLTCLASYCWLFWTGIA (disulfide 9-14 (inferred); not fully specified (C-terminus); printed as RR-MeAla-PGKLTCLASYCWLFWTGIA) [RR-MeAla-PGKLTCLASYCWLFWTGIA] | < 0.5 | –
15 | RRAPGKLTCLAK([PEG2′-Biotin])YCWLFWTGIA-NH2 (cysteine pairing not given here) [compound 18] | – | < 0.5
16 | RRAPGKLQCLASYCWLFWTGKA | > 5 | –
17 | RRKPGKLQCLASYCWLFWTGIA | > 1 | –
18 | R[NMeR]APGKLTCLASYCWLFWTGIA (disulfide 9-14 (inferred); not fully specified (C-terminus); printed as R-MeArg-APGKLTCLASYCWLFWTGIA) [R-MeArg-APGKLTCLASYCWLFWTGIA] | < 0.5 | –
19 | KRAPGKLQCLASYCWLFWTGIA | < 0.5 | –
